The values that follow come from US20240043512A1.

In this assay the target is IM-CA22. Kind of assay: competition ELISA: 0.5 µg/mL peptide added to prevent the binding of AS-SPIK with IM-CA22; inhibition rate from OD value with vs without peptide.
Chain of IM-CA22 (VH, as listed by the source, chain 1 of 2): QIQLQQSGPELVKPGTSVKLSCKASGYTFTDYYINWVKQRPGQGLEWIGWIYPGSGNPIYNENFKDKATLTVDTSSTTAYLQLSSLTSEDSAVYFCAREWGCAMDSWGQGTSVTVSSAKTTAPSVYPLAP
Chain of IM-CA22 (VL, as listed by the source, chain 2 of 2): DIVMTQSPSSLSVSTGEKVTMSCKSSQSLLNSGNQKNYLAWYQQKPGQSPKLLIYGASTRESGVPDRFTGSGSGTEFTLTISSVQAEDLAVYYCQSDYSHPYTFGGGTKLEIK
As for GNTGADSLG [SPIK4], the Inhibition % came out at 6%.
Turning to SGNTGADSL [SPIK5], the Inhibition % stood at 5%.
To SLSGNTGAD [SPIK7] belongs 6%.
For the molecule LSGNTGADS [SPIK6], the Inhibition % was 6%.
